Residue numbers refer to the chain shown, from its start.
B1: humanized antibody 18A10 H2L2 (antibody, V domains shown)
VH: EVQLVQSGGGLVQPGGSLKLSCAASGFTFSSYGMSWVRQAPGKGLDWVATISGGGRDTYYPDSVKGRFTISRDNSKNNLYLQMNSLRAEDTALYYCARQKGEAWFAYWGQGTLVTVSS
VL: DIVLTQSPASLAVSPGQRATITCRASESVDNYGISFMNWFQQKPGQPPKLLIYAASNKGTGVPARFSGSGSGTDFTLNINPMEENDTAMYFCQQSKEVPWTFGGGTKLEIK
notes: also called H2L2 antibody
B2: humanized antibody 18A10 H1L1 (antibody, V domains shown)
VH: B1 VH with A40T, G42E
VL: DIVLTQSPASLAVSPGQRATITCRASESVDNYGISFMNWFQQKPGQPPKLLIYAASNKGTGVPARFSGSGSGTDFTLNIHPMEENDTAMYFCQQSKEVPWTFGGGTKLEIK
notes: also called H1L1 antibody
B3: humanized antibody 18A10 H3L3 (antibody, V domains shown)
VH: B1 VH with N78T, L93V
VL: DIVLTQSPASLAVSPGQRATITCRASESVDNYGISFMNWYQQKPGQPPKLLIYAASNKATGVPARFSGSGSGTDFTLNINPMEANDTAVYFCQQSKEVPWTFGGGTKLEIK
notes: also called H3L3 antibody

Experiments:
[1] = molecular target: T1, PD-1 antigen stably expressed on the surface of BB007 cells (UniProt Q15116 25-288, limits assumed); test: flow cytometry on BB007 cells; antibody 0.1 nM
T1 construct: whole, on cells; also called target protein PD-1 on the surface of the BB007 cell
Protocol: (§1) The binding efficiencies of H1L1, H2L2 and H3L3 antibodies to PD-1 antigen stably expressed on the surface of cells (named as BB007 cells) were determined by flow cytometry. The BB007 cells were obtained by routine trypsin digestion, and then washed with PBS buffer once, followed by dividing into several tubes, with 2×10⁵ cells per tube. After dilution into concentrations of 20 nM, 10 nM, 5 nM, 1 nM, 0.1 nM and 0 nM with the PBS buffer containing 1% BSA for each of the H1L1, H2L2 and H3L3 antibodies, individual antibodies in a volume of 100 μl were added into individual tubes and incubated on ice for 1 hour. After the mixture was washed with the PBS buffer once, 100 μl FITC-Goat-Anti-Human IgG (in 1:500 dilution) was added for each tube and incubated on ice for 1 hour, followed by addition of 300 μl the PBS buffer for detecting fluorescence signal with a FITC channel on the flow cytometer.

[2] = molecular target: T1, PD-1 antigen stably expressed on the …; test: flow cytometry on BB007 cells; antibody 1 nM
Protocol: as §1

[3] = molecular target: T2, PD-1-mIgGFc fusion protein; test: ELISA on coated PD-1-mFc; antibody 1 µg/ml diluted 1:729; replicate 2
T2 construct: also called PD-1-mFc; PD-1-mIgGFc antigen
Protocol: (§2) An ELISA plate was coated with PD-1-mFc antigen in a concentration of 0.5 μg/ml (50 μl per well) by incubation at 4° C. overnight.
(§3) After the ELISA plate was washed with the PBST buffer for three times and gently patted to dryness again, TMB as a developer in 50 μl per well was added for incubation at room temperature for 5 to 10 minutes.
(§4) The absorbance of solution in each well was measured with the microplate reader under a wavelength of 450 nm.

[4] = molecular target: T2, PD-1-mIgGFc fusion protein; test: ELISA on coated PD-1-mFc; antibody 1 µg/ml; replicate 1
Protocol: as §2, §3, §4

[5] = molecular target: T2, PD-1-mIgGFc fusion protein; test: ELISA on coated PD-1-mFc; antibody 1 µg/ml diluted 1:27; replicate 2
Protocol: as §2, §3, §4

[6] = molecular target: T2, PD-1-mIgGFc fusion protein; test: ELISA on coated PD-1-mFc; antibody 1 µg/ml diluted 1:81; replicate 1
Protocol: as §2
(§5) The ELISA plate coated with the PD-1-mFc antigen was blocked with 1% BSA in the PBS buffer at 37° C. for 2 hours, and washed with 1×PBST buffer containing 1% Tween-20 for three times, with gently patting to dryness.
as §4

[7] = molecular target: T1, PD-1 antigen stably expressed on the …; test: flow cytometry on BB007 cells; antibody 20 nM
Protocol: as §1

[8] = molecular target: T2, PD-1-mIgGFc fusion protein; test: competitive ELISA on coated PD-1-mIgGFc; competitor PDL1-mIgG2aFc 0.3 µg/ml; antibody 1.5 µg/ml diluted 1:81; replicate 1
Protocol: (§6) A 96-well ELISA plate was coated with PD-1-mIgGFc antigen in a concentration of 0.5 μg/ml (50 μl per well) by incubation at 4° C. overnight.
(§7) The 18A10 H1L1, 18A10 H2L2 and 18A10 H3L3 antibodies each were diluted from 3 μg/ml in series by 1:3, with 7 gradient antibody solutions obtained for each antibody. The 7 gradient antibody solutions for each antibody and the blank PBS control (50 μl per well) were respectively added into the blocked 96-well ELISA plate for incubation at room temperature for 10 minutes.
as §4

[9] = molecular target: T2, PD-1-mIgGFc fusion protein; test: competitive ELISA on coated PD-1-mIgGFc; competitor PDL1-mIgG2aFc 0.3 µg/ml; antibody 1.5 µg/ml diluted 1:243; replicate 2
Protocol: as §6, §7
(§8) After the 96-well ELISA plate was washed with the PBST buffer for three times and gently patted to dryness, goat anti-mouse IgG-HRP (H+L) as a secondary antibody in 1:5000 dilution (50 μl per well) was added for incubation at 37° C. for 1 hour.

[10] = molecular target: T2, PD-1-mIgGFc fusion protein; test: competitive ELISA on coated PD-1-mIgGFc; competitor PDL1-mIgG2aFc 0.3 µg/ml; antibody 1.5 µg/ml; replicate 2
Protocol: as §6, §7, §4

[11] = molecular target: T2, PD-1-mIgGFc fusion protein; test: ELISA on coated PD-1-mFc; antibody 1 µg/ml; replicate 2
Protocol: as §2, §3, §4

[12] = molecular target: T2, PD-1-mIgGFc fusion protein; test: competitive ELISA on coated PD-1-mIgGFc; competitor PDL1-mIgG2aFc
Protocol: as §6, §7

[13] = molecular target: T2, PD-1-mIgGFc fusion protein; test: competitive ELISA on coated PD-1-mIgGFc; competitor PDL1-mIgG2aFc 0.3 µg/ml; antibody 1.5 µg/ml diluted 1:3; replicate 1
Protocol: as §6, §7, §8

[14] = molecular target: T2, PD-1-mIgGFc fusion protein; test: competitive ELISA on coated PD-1-mIgGFc; competitor PDL1-mIgG2aFc 0.3 µg/ml; antibody 1.5 µg/ml diluted 1:81; replicate 2
Protocol: as §6, §7, §4

[15] = molecular target: T1, PD-1 antigen stably expressed on the …; test: flow cytometry on BB007 cells; antibody 10 nM
Protocol: as §1

[16] = molecular target: T2, PD-1-mIgGFc fusion protein; test: ELISA on coated PD-1-mFc
Protocol: as §2, §4

[17] = molecular target: T2, PD-1-mIgGFc fusion protein; test: competitive ELISA on coated PD-1-mIgGFc; competitor PDL1-mIgG2aFc 0.3 µg/ml; antibody 1.5 µg/ml diluted 1:27; replicate 1
Protocol: as §6, §7, §8

[18] = molecular target: T2, PD-1-mIgGFc fusion protein; test: ELISA on coated PD-1-mFc; antibody 1 µg/ml diluted 1:9; replicate 1
Protocol: as §2, §3, §4

[19] = molecular target: T2, PD-1-mIgGFc fusion protein; test: ELISA on coated PD-1-mFc; antibody 1 µg/ml diluted 1:9; replicate 2
Protocol: as §2, §5, §4

[20] = molecular target: T2, PD-1-mIgGFc fusion protein; test: competitive ELISA on coated PD-1-mIgGFc; competitor PDL1-mIgG2aFc 0.3 µg/ml; antibody 1.5 µg/ml diluted 1:9; replicate 1
Protocol: as §6, §7, §8

T1 sequence (Q15116 25-288 limits assumed): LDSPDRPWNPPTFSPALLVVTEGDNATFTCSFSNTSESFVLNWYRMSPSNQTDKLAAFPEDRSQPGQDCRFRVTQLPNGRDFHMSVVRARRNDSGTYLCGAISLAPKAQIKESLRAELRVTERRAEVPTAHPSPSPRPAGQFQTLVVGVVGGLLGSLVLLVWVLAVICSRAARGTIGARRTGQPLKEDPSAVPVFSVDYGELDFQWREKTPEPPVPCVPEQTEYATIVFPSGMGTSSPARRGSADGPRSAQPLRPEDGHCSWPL
T2 sequence (chain, as listed by the source limits assumed): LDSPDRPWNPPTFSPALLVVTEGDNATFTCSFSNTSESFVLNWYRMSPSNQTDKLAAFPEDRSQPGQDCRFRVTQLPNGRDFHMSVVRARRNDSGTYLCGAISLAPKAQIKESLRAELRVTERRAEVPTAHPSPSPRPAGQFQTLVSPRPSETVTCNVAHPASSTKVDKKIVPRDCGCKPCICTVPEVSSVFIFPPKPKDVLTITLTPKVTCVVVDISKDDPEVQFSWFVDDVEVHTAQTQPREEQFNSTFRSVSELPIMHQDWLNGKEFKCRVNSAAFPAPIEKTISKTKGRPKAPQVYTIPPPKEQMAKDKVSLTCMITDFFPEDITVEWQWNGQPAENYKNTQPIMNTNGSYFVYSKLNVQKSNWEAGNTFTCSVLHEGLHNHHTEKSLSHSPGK

Binder	fluorescence intensity [1]	fluorescence intensity [2]	absorbance at 450 nm [3]	absorbance at 450 nm [4]	absorbance at 450 nm [5]	absorbance at 450 nm [6]	fluorescence intensity [7]	absorbance at 450 nm (competition) [8]	absorbance at 450 nm (competition) [9]	absorbance at 450 nm (competition) [10]	absorbance at 450 nm [11]	EC50 [12]	absorbance at 450 nm (competition) [13]	absorbance at 450 nm (competition) [14]	fluorescence intensity [15]	EC50 [16]	absorbance at 450 nm (competition) [17]	absorbance at 450 nm [18]	absorbance at 450 nm [19]	absorbance at 450 nm (competition) [20]
B1	19.1	92.5	0.224	2.36	1.63	1.04	329	1.09	1.21	0.102	2.43	838 pM	0.097	1.1	349	111 pM	0.951	2.18	1.98	0.474
B2	19	64.4	0.163	2.47	1.65	0.883	358	1.29	1.21	0.107	2.32	992 pM	0.123	1.14	316	156 pM	1.06	1.96	1.98	0.625
B3	21.2	110	0.185	2.14	1.5	0.928	367	1.09	1.21	0.102	2.44	1190 pM	0.103	1.19	386	144 pM	1	1.95	2.06	0.7
